The supplement of paper PMC10899765

How the values were obtained:
Details in all cases: 20 nM; 72 h
[1] = tested on: MCF10A; experiment: 5+ nucleoli phenotype percent effect (relative to siNT 0% and siKIF11 100%); higher = more cells with five or more nucleoli
Procedure: (§1)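 After 72 h, cells were fixed and stained with Hoechst and anti-fibrillarin, and nucleoli per nucleus were counted with CellProfiler. Values are plate-adjusted percent effect for the one-nucleolus and 5+ nucleoli phenotypes, normalised to siNT (0%) and to the positive controls siNOL11 or siKIF11 (100%), as the mean of biological triplicates. Percent viability is the nuclei count relative to siNT.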

[2] = tested on: MCF10A; experiment: percent viability (nuclei count relative to siNT); higher = more viable cells
Procedure: as §1

[3] = tested on: MCF10A; experiment: one-nucleolus phenotype percent effect (relative to siNT 0% and siNOL11 100%); higher = more cells with one nucleolus (ribosome biogenesis inhibition)
Procedure: as §1

Row | Sequence | 5+ nucleoli phenotype percent effect [1] | percent viability [2] | one-nucleolus phenotype percent effect [3]
1 | UCUGGCUAUCUCACGAGACUGU [hsa-miR-4794] | 3.59% | 35.9% | 26.9%
2 | UGGCUGUUGGAGGGGGCAGGC [hsa-miR-4687-3p] | -1.42% | 23.1% | 25.6%
3 | GGGGAACUGUAGAUGAAAAGGC [hsa-miR-8059] | 34.6% | 101% | -28.4%
4 | ACUCCAGUUUUAGUUCUCUUG [hsa-miR-3925-3p] | 38% | 63.4% | -22.1%
5 | CCCGGAGCCAGGAUGCAGCUC [hsa-miR-1203] | 4.95% | 68.6% | -10.2%
6 | GAAAGUGCUUCCUUUUAGAGGC [hsa-miR-526b-3p] | 57.2% | 105% | -23.4%
7 | AGCCGCGGGGAUCGCCGAGGG [hsa-miR-3648] | 19.7% | 88.3% | -17.8%
8 | UUCCACUGCCACUACCUAAUUU [hsa-miR-6509-3p] | -18.4% | 56.2% | -4.11%
9 | UCAGUCACAUAUCUAGUGUCUA [hsa-miR-4704-3p] | 10.1% | 54.4% | 5.92%
10 | AUCAAAUAAGGACUAGUCUGCA [hsa-miR-3671] | 14.8% | 74.3% | -10.1%
11 | UGUAGUUGUAUUGUAUUGCCAC [hsa-miR-4703-3p] | -29.5% | 40.8% | 6.74%
12 | UUGAGGAAAAGAUGGUCUUAUU [hsa-miR-3915] | -19% | 36.5% | -3.96%
13 | GGGAUUCUGUAGCUUCCU [hsa-miR-4320] | -18.6% | 28.6% | 50%
14 | AUGGCAUCGUCCCCUGGUGGCU [hsa-miR-4642] | -4.74% | 31.3% | 16.6%
15 | UAGGCCACAGCCACCCAUGUGU [hsa-miR-4717-5p] | -6.97% | 23.3% | -8.66%
16 | ACCCCACUCCUGGUACC [hsa-miR-4286] | 39.7% | 48.7% | -13.8%
17 | UGAGUAUUACAUGGCCAAUCUC [hsa-miR-496] | -15.6% | 42% | 11.1%
18 | CCUCAGGGCUGUAGAACAGGGCU [hsa-miR-1266] | 16.1% | 49.2% | 12.6%
19 | AAACUAAUAUACCCAUAUUCUG [hsa-miR-5583-5p] | 35.5% | 115% | -23.4%
20 | AAAAGUAUUUGCGGGUUUUGUC [hsa-miR-548l] | 30% | 127% | -20.8%
21 | UGACUUCUACCUCUUCCAAAG [hsa-miR-6505-3p] | -48% | 33.6% | 46.6%
22 | UGUGUGUGUAGAGGAAGAAGGGA [hsa-miR-6867-5p] | -22.4% | 13.1% | 64.8%
23 | UAACAAACACCUGUAAAACAGC [hsa-miR-5688] | 22.5% | 101% | -7.14%
24 | UGAGACCUCUGGGUUCUGAGCU [hsa-miR-769-5p] | 9.63% | 47.4% | 7.1%
25 | AUAAGACGAACAAAAGGUUUGU [hsa-miR-208b] | 3.95% | 63% | 2.18%
26 | ACACAUGGGUGGCUGUGGCCU [hsa-miR-4717-3p] | 24.6% | 66.4% | -12.1%
27 | AUGUGGGCUCAGGCUCA [hsa-miR-4296] | -35.4% | 26.9% | 44.2%
28 | GCCGGGGCUUUGGGUGAGGG [hsa-miR-6784-5p] | 49% | 171% | -23.3%
29 | UGGUCAGAGGCAGCAGGAAAUGA [hsa-miR-6801-5p] | 27.3% | 54.5% | -5.6%
